For series [1], the system named is T1, Nc1nc2c(ncn2[C@@H]2O[C@H](COP(=O)(O)OP(=O)(O)OP(=O)(O)O)[C@@H](O)[C@H]2O)c(=O)[nH]1.
T1 construct: core enzyme without sigma, ~400 kDa five-subunit core (2α, β, β′, ω); 6xHis tag on the RNAP; with DNA-directed RNA polymerase subunit alpha; DNA-directed RNA polymerase subunit omega
Nature of the series: misincorporation in assembled elongation complexes, Urea-PAGE, Michaelis-Menten fit. Type of series: biochemical, Escherichia coli. Conditions: misincorporation (non-cognate NTP for the template base), assembled elongation complex, pH 8.5, MgCl2.

Substrate in series [2]: Nc1ncnc2c1ncn2[C@@H]1O[C@H](COP(=O)(O)OP(=O)(O)OP(=O)(O)O)[C@@H](O)[C@H]1O
Nature of the series: RNA extension in assembled elongation complexes, Urea-PAGE, Michaelis-Menten fit. Format: biochemical, Bacillus subtilis. The conditions noted are these: 10 °C, assembled elongation complex (template DNA, RNA primer), 20 mM Tris-HCl pH 8.5, 40 mM KCl, 10 mM MgCl2.

Substrate in series [3]: Nc1nc2c(ncn2[C@@H]2O[C@H](COP(=O)(O)OP(=O)(O)OP(=O)(O)O)[C@@H](O)[C@H]2O)c(=O)[nH]1
The series is described as follows: misincorporation in assembled elongation complexes, Urea-PAGE, Michaelis-Menten fit. Conditions: misincorporation (non-cognate NTP for the template base), assembled elongation complex, pH 8.5, MgCl2. Type of series: biochemical, Bacillus subtilis.

For “E. coli core msRNAP (Escherichia coli K-12)”, the Michaelis-Menten constant (Km) (commonly the concentration of substrate that gives half-maximal velocity) in series [1] was 458 ± 23 µM.

B1: YonO (Bacillus subtilis subsp. subtilis str. 168) (protein)
chain: MKGKKDGLNKQVHIYSIDTSAFYNDQENKLHNKILKSYRYRDHLRKLEHVDKKHKKYITQRIISLKEKLYNAFNDHNQIRTLRTDSLKDNNVISLFDSVLTRTLGIKENSLSEEIMVVQTYHFQILRDIIDKGFIHNNEKYVYFTSSAGQIRTKKSCFIKQSTLDKYQNALTCGLSVEHINAQGGSSINKWNSYMALSNSASSSWEIDIDKAIVVNDLETNVSSLVDYIDRDTYEITRKIMDIPIEHTDGCGMMLPSLSQKSFMVRLPWVKGLLVPFDFRKFAEKHSSFIVKDVYGKEWDIIKDDIQIIFTKSQFKMWKYYDSWDDYRYKFKKYGCLGAKLNEEDPSVEGKLTYQMLQTLTDITDEELKQISSKTVSEITQLGTDKETMMKVLGATEKNKHKTSLQEALLIYPELLNDDHTKEIIKNKKKSMIKDAKSGKLLVSDARYTYLCPDLYAFCERLFLGIESPKGLLSGSDVHCSLYDEGYIDILRSPHLFREHGVRWNKKNEEYEKWFITPGVYTSIHDPISKLLQFDNDGDKALIISDELIVNIAKRNMADIVPLYYEMSVAQKQEINSRNIYEALTLAYGINIGEYSNNITKIWNSDNINLDVIKWLCMENNFTIDFAKTLFMPTRPDHVDEKIKDYIKNKVPHFFINAKDKEEHSVESINESTVNKLDSIIPSDRINFAAVAGKFDYRFLLKNKEIKLNEAVINEYKRLDRNKKWLMNDEEAKPGQKLYVYKIIKQKLLEIHNDDGFITDVLVKHLYKKKSKYKSTLWECFGDIVLENIKHNLKTFKGCCICGKAFKPTSNKAKYCQSCGKKKERDKYKKYNKKRINHR
notes: N-terminal 6xHis-tag, pET-28a, expressed in E. coli T7 Express; single chain, ~100 kDa
On to B1, for which the Km in series [2] stood at 1.8 ± 0.7 µM; in series [3], 126 ± 41 µM.

The record behind these values is paper PMC5467207, “Single-peptide DNA-dependent RNA polymerase homologous to multi-subunit RNA polymerase” (Nature Communications, 2017).
